Experimental findings from FireProtDB (doi:10.1021/bi001735j) are described below.

The conditions of the data set: Homo sapiens, pH 7, 25 °C, GdnHCl, CD, sodium cacodylate 50 mM, NaCl 50 mM, whole UniProt chain shown.

“And” between values parts separate entries of the source, which are not always exact repeats. Equal values may be shown once.

B1: Alpha-lactalbumin wild type, P00709 (protein)
chain: MRFFVPLFLVGILFPAILAKQFTKCELSQLLKDIDGYGGIALPELICTMFHTSGYDTQAIVENNESTEYGLFQISNKLWCKSSQVPQSRNICDISCDKFLDDDITDDIMCAKKILDIKGIDYWLAHKALCTEKLEQWLCEKL
For the protein B1, the denaturant m value was 2.9 kcal/mol/M and 2.4 kcal/mol/M and 4.4 kcal/mol/M; the unfolding free energy is 6.9 kcal/mol and 7.2 kcal/mol and 13.8 kcal/mol. In addition, the denaturant m value (transition: 3) is 2.2 kcal/mol/M and 0.77 kcal/mol/M and 0.75 kcal/mol/M.
